Assay results as given in the nanobody polyreactivity screen of Harvey et al. (2022).

Assay: yeast display, Sf9 membrane polyspecificity reagent, FACS + sequencing; frameworks hold sequencing errors
Summary of the method: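 In a synthetic yeast display library (Saccharomyces cerevisiae BJ5465), nanobody expression was induced with galactose for 36–48 hours. FACS gates were set low and high (top ~1%) using anti-HA fluorescence for expression and streptavidin fluorescence for binding of the Sf9 membrane reagent. Each polyreactivity label is drawn from the gate of origin.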

Sequence	polyreactivity (PSR sort gate)
QVQLVESGGGLVHAGGSLRLSCAASGSTFPAYAMGWYRQAPGKERELVAGITRGGSTYYADSVKGRFTISRDNAKNTVYLQMNSLKPEDSAVYYCAAYVLPWRGRGQTEYGYWGQGTQVTVSS	low polyreactivity
QVQLVESGGGLVHAGGSLRLSCAASGSTFYYNAMGWNRPAPGKETELVARISRSGGSTYADSVKGRFTISRDNAKNTVYLQMNSLKPEDTAVYYCNADAYGTPEFTSYAVRYDYWGQGTQVTVSS	low polyreactivity
QVQLVESGGGLVHAGGSLRLSCAASGSTYGGNAMGWYRQAPGKETELVASITRSGGSTYYADSVKGRFTISRDNAKNTVYLQMNSLKPEDTSVYYCAAGKWYRSPWKYDYWGQGTQVTVSS	low polyreactivity
QVQLVESGGGLVHAGGSLRLSCAASGTISAYAMGWYRPAPGKERELVAAISYSGGSTYYADSVKGRFTISRDNAKKTVYLQMNSLKPEDTAVYYCNARARWYYPYKTYYYWGQGTQVTVSS	high polyreactivity
QVQLVESGGGLVHAGGSLRLSCAASGYTFQWYDMGWYRQAPGKERELVASISWRGGSTYYADSVKGRFTISRDHAKNTVYLQMNSLKPEDTAVYYCAASLWPDYEYDYWGQGTQVTVSS	low polyreactivity
QVQLVESGGGLVHAGGSLRLSCAASRFIFYYYALGWYRQAPGKERELVAVITSGGSTNYADSVKGRFTISRDNAKNTVYLQMNSLKPEDTAVYYCAARSRRRDDSWGQGTQVTVSS	high polyreactivity
QVQLVESGGGLVHAGGSLRLSCAPSGFTLVSYAMGWHRKAPGKEREFDAGITDSGGSTYYADSVKGRYTITRDNAKNTFYLQMNSLKPVDTAVYYCKADFAPWDKQDYPYDYDYWGQGTQVTVSS	low polyreactivity
QVQLVESGGGLVHAGGSLRLSCASSGSIFYYYAMGWYRQAPGKERELVASITSSGGTTSYADSVKGRYTISRDNAKNTVYLLMNSLKPEDTAVYYCNAQVYRYRIGYDYWGQCTQVTVSS	low polyreactivity
QVQLVESGGGLVHAGGSLRLSCDASGLIFYGYAMGWYRQAPGKERQLVADITYSGGRTYYADSVKGRFSISRDNAKNTVYFQMHSLKAEDTAVYYCNARHRSHSNSQPGWKYVYWGQGTQVTVSS	low polyreactivity
QVQLVESGGGLVHAGGSLRLSCSASGSTLRFNAMGWYRQAPGKVREFVATITRRGGSTYYADSEKGRFTISRDNAKNTVYLQMNSLKPEDTAVYYCAADRGGYSVLGGYWGQGTQVTVSS	high polyreactivity
QVQLVESGGGLVHAGGSLRLSCSATRSIFLGNAMGWYRQAPGKERELVAAISRSGGSTYYADSVKGRFTISRDNAKNTVYLQMNSLKPEDTAVYYCAAVVSSRVKQFEYWGQGNQVTVSS	high polyreactivity
QVQLVESGGGLVHAGGSLRVSCAASGIIFDGNAMGWYRQAPGKERELVAAITASGGSTHYADSVKGRFTISRDNAKNTVYLQMNSLKPEDTAVYYCNKRSRTTGDYDYWGQGTQVTVSS	low polyreactivity
QVQLVESGGGLVHAGGSLSLSCAASGIIFPWYTMGWYRKAPGKERELVAAISSGGRTNYADSVKGRFTISRDNATNTVFLQMNSLKQEDTAVYYCGAKYYRDRDWGQGTQVTVSS	high polyreactivity
QVQLVESGGGLVHAGGSLSLSCAASGSIFPTNVMGWYRQAPGKERELVAAISANDGSTYYADSVKGRFTISRDNAKNTVYLQMNSLKPEDTAVYYCNQEGYTYRFTWYDYWGQGTQVTVSS	low polyreactivity
QVQLVESGGGLVHAGGTLRLSCAASGSIFARYAMGWYRQAPVKERELVAAISRNGGSTYYADSVKGRFTISRDNAKNTVYLQMNSLNPEDTAVYYCAASYYVLYTREYDYWGQGSQVTVSS	low polyreactivity
QVQLVESGGGLVHAVGSLRLSCAASGRTFISYAMGWYRQAPGKERELVAAISKYGGRTYYADSVKGRFTISRDNAKNTVYLQKISLKPEDTAVYYCAAVKTYLDYSSTSYDYWGQGTQVTVSS	high polyreactivity
QVQLVESGGGLVHDGRSLRLSCSASRRTYRLYAMGLYRQAPGQERELVAAITRGGRTNYADSVMGRFTISRDNAKNTVYLQMNSLKPEDTAVYYCADRYVERHTDYYYWGQGSQVTVSS	low polyreactivity
QVQLVESGGGLVHSGGSLRLSCAASGSIFRRNAMGWYIQAPGKERELVAAISASGGRTYADSVKGRFTISRDNAKNTVYLQMNSLKPEDTAVYYCAVRSYWRVDYWGQGTQVTVSS	high polyreactivity
QVQLVESGGGLVKAGCSLRLRCAASGGTFSYYAMGLYRQAPGKERELVAAISRSSSRTYYADSVKGRFTISRDNAKNTVFLQMNSLKPEDTAVYYCAADRVSYSGRTPKGQRYDYWGQGTQVTVSS	high polyreactivity
QVQLVESGGGLVKAGGRLRLSCAASGSIFKKYAMGWYRQAPGKERELVAAITSGRSTYYADSVKGRFTISRDNAKKTVYLQMNSLKPEDTAVYYCANYRKGSLGSWGQGTQGTVSS	high polyreactivity

Sequence	polyreactivity (PSR sort gate)
QVQLVESGGGLVKAGGSIRLSCAASGSIFYRNTMGWYRQAPRKERQLVAAISKTGGSTYYSDSVKGRFTISRDNAKNTVYVQMNSLKPEDTAVYYCNRAPYALRVLCTGIISGHDYWGQGTQVTVSS	high polyreactivity
QVQLVESGGGLVKAGGSLRISCAASGRTFGLYAMGWYRQAPGKERELVAAISWGGGRTYYADSVKGRFTISRDNAKNTVYLQMNSLNPEETAVYYCNAVYSPRYYVGGYDYWGQGTLVTVSS	high polyreactivity
QVQLVESGGGLVKAGGSLRLSCAASGFIFSLYAMGWYRQAPGKERELVASINRRGTSTFYADSVKGRFTISRDNAKNTVYLQMNSLKPEDTAVYYCNAYPGAAIRSTGRYDYWGQGTQVTVSS	low polyreactivity
QVQLVESGGGLVKAGGSLRLSCAASGFIFYIYAMGWYRQAPGKERELVAAITSGGSTYYADSVKGRFTISRDNAKNTVYLQMNSLKPEDTAVYYCAAESYYGYDYWGQGTQVTVSS	low polyreactivity
QVQLVESGGGLVKAGGSLRLSCAASGFTFNKYAMGWYRQAPGKERESVAAISSSGGSTRYADSVKGRFTISRDNAKNTVYLQMNSLKPADTAVYYCAVYVTPDSGWWLYDYWGQGTHVTVSS	high polyreactivity
QVQLVESGGGLVKAGGSLRLSCAASGFTFYTYTMGWYRQAPGKERELVAVISRSGGSTYYADSVKGRFTISRDNAKNTVYLQMNSLKPEDTAVYYCNAGYWRFIDSYDYWGQGTQVTVSS	high polyreactivity
QVQLVESGGGLVKAGGSLRLSCAASGGIFYRNSMGWYRQAPGKERELVAAISWRGGSTYYADSVKGRFTISRDNAKNTVYLQMNSLKPEDTAVYYCAARSVATYRYDYWGQGTQVTVSS	high polyreactivity
QVQLVESGGGLVKAGGSLRLSCAASGIPFTFNAMGWYRQAPGKERELVAAITWSGGSTFYADSVKARFTISRDNAKITVYLQMNSLKQEDTAVYYCARETELYVRWLDYWGQGTQGTVSS	low polyreactivity
QVQLVESGGGLVKAGGSLRLSCAASGITFYEYAMGWYRQAPGKERELVAAITTGGTTNYADSVKGRFTISRDNAKNTVYLQMNSLKPEDTAVYYCAKDLDSGGRGYYWGQGTQVTVSS	low polyreactivity
QVQLVESGGGLVKAGGSLRLSCAASGLIFAYYDMGWYRQAPGKERELVASITGSGGDTYYADSVKGRFTISRDNAKNTVYLQMNSLKPEDTAVYYCNAYYGAAFTYWDDYWGQGTQVTVSS	low polyreactivity
QVQLVESGGGLVKAGGSLRLSCAASGLTFRNNAMGWYRQAPGIERELVASINSGRSTNYADSVKGRFTISRDNAKNTVYLQMNSLKREDTAVYVCATRYYWYTRDSYDYWGQGTQVTVSS	low polyreactivity
QVQLVESGGGLVKAGGSLRLSCAASGLTFTRYTMGWYRQAPGKERELVAAITSSGGSTYYADSVKGRFTISRDNAKNTVYLQRNSVKPEDTAVYYCAAPYPGTRGDGYWGLGTQVTVSS	high polyreactivity
QVQLVESGGGLVKAGGSLRLSCAASGRIFKIYAMGWYRQAPGKERELVAAISGRGGSTYYADSVKGRFTISRDNAKNTVYLQLNSLKPEDTAVYYCAAVGYGFSAYSTYDYWGQGTQVTVSS	high polyreactivity
QVQLVESGGGLVKAGGSLRLSCAASGRIFYLNAMGWYRQAPGKERELVAGIRKRGGSTYYADSVKGRFTISRDNAKNTVYLQMNSLKPEDTAVYYSAGQPALTYRFYYWGQGTQVTVSS	high polyreactivity
QVQLVESGGGLVKAGGSLRLSCAASGRNFWFNAMGWYRQAPGKERELVAAIRNRGGSTYYADSVKGRFTISRDNAKNTVYLQMNSLKPEDTAVYYCARAPEGTGGKYGYWGQGTQVTVSS	high polyreactivity
QVQLVESGGGLVKAGGSLRLSCAASGRTFGYYAMGWYRQSPGKERELVADIRQSGGRTYYADSVKGRFRISRDNAKNTVYLQMNSLKPVDTAVYYCAARRSYLAYTYRRSYPMDSWGQGTQVTVSS	high polyreactivity
QVQLVESGGGLVKAGGSLRLSCAASGRTFVYYAMGWYRQAPGKERELVAAISGSGGSTYYADSVKGRFTISRDNAKNTVYLQMNSLKPEDTAVYYCAAGPRGRYRYGYWGQGTQVTVSS	high polyreactivity
QVQLVESGGGLVKAGGSLRLSCAASGSIFDFYVMGWYRQAPGKERELVAAISSGGSTYYADSVKGRFTISRDNAKNTVYIKMNSLKPEDTAVYYCAAYPEYVSGAWYDYWGQGTQVTVSS	low polyreactivity
QVQLVESGGGLVKAGGSLRLSCAASGSIFLYYSMGWYRQAPGKERELVAAITGGGCTNYADSEKGRFTISRDHAKNNVYLLMNSLKPEDTSVYYWAADASGQFPYSYYNYDYDYWGQGTQVSVSS	low polyreactivity
QVQLVESGGGLVKAGGSLRLSCAASGSILGAYNMGWYRQAPGKERELVSAITRRGGSTYYADSVKGRFTISRDNAKNTVYLQMNSLNPEDTAVYYCNAEYGFWYDYLVVPYDYWGQGTQVTVSS	low polyreactivity
